# Laboratory results taken from PMC8997467.
# Columns and labels:
# Settings in all cases: glycan lost; control: wild type
# [1] = anti-FLAG surface immunofluorescence, non-permeabilised HeLa
# [2] = cell surface biotinylation, streptavidin pulldown, HeLa
# [3] = co-immunostaining with ER marker HA-PDIA4
Substance,"localisation_or_trafficking, percent_of_wt [1]","localisation_or_trafficking, percent_of_wt [2]",localisation_or_trafficking [3]
Neuronal growth regulator 1 (NEGR1): N73Q,no change,,
Neuronal growth regulator 1 (NEGR1): 1MT (N307Q),,no change,
Neuronal growth regulator 1 (NEGR1): N294Q,no change,,
Neuronal growth regulator 1 (NEGR1): N286Q,no change,,
Neuronal growth regulator 1 (NEGR1): N275Q,no change,,
Neuronal growth regulator 1 (NEGR1): N73Q/N155Q,abolishes,abolishes,changes
Neuronal growth regulator 1 (NEGR1): N307Q,no change,,
Neuronal growth regulator 1 (NEGR1): N155Q,no change,,
